# Results published in IntAct's records for PubMed 9687513.
# B1: Early protein (Human adenovirus C serotype 5 (HAdV-5)), P03255-2 (parent)
# chain: MRHIICHGGVITEEMAASLLDQLIEEVLADNLPPPSHFEPPTLHELYDLDVTAPEDPNEEAVSQIFPDSVMLAVQEGIDLLTFPPAPGSPEPPHLSRQPEQPEQRALGPVSMPNLVPEVIDLTCHEAGFPPSDDEDEEGPVSEPEPEPEPEPEPARPTRRPKMAPAILRRPTSPVSRECNSSTDSCDSGPSNTPPEIHPVVPLCPIKPVAVRVGGRRQAVECIEDLLNEPGQPLDLSCKRPRP
# Variants of: B1
# Settings: with kat2b_human KAT2B
row,Variant,effect of a mutation on the interaction
1,E55A;D56A;P57A;N58A;E59A;E60A,decreasing interaction
